Km and kcat data for one protein are collected here from article PMC3855486, “New Insights into the Phylogeny and Molecular Classification of Nicotinamide Mononucleotide Deamidases” (PLoS ONE, 2013).

The term Km denotes the substrate concentration at which the rate is half of its maximum. What is called kcat is the number of substrate molecules converted per active site and unit of time at saturation.

Substrate in the series: NC(=O)c1ccc[n+]([C@@H]2O[C@H](COP(=O)(O)O)[C@@H](O)[C@H]2O)c1
In words: HPLC, decrease of NMN peak area. It counts as biochemical, Oceanobacillus iheyensis. Conditions: 50 mM phosphate buffer pH 7.5, 37 °C, Michaelian, NMN 0.01-1 mM.

B1: OiPncC (Oceanobacillus iheyensis HTE831) (protein)
chain: MKNYQAEIVAVGTELLLGQIANTNAQWLSEKLATYGINMYNHTVVGDNLERVEQAFQLAQSRSNIIIVTGGLGPTADDLTREGFQQMTGLPLVEDKESMEKIEGFFQNRGRTMTPNNRKQARVFEGSTVLNNKAGMAPGMYVHYQSCHWFFLPGVPREMKHISQEELFPFLEKVTGKQRIIQSVVLKFIGIGESTLEHTLSDLIEKQTNPTIAPLAQDQAVVIRLTARGETKQEAEAMLEQTKKLILARVGEHYFGENEESIEDIVVQQLQDLGYSISAAESITGGMFSQRLVSVTGASNVFAGSFITYQSRIKEEVLEVPSEIIHSQGVVSRACSDAMASNVTRKIQTNLGISFTGIAGPDEQEGKPVGTVYISIADGDEVVVSKQFNFTGNRNHIRDRACLKGFELIYQYLKSKS
notes: full length, 417 residues (gene misprinted as 417 bp), MocF-CinA two-domain; C-terminal His6 (pET24b), E. coli Rosetta2(DE3)
Consider B1, for which the Km was determined as 180 ± 20 µM and the kcat amounted to 0.38 ± 0.01 s⁻¹.
